{"source": "paper PMC11079059", "about": "“Development of a new affinity maturation protocol for the construction of an internalizing anti-nucleolin antibody library” (Scientific Reports, 2024)", "binders": {"B1": {"name": "VHH clone D10 (VHH)", "VHH": "QVQLQESGGGLVQPGGSLRLSCAASGRASASSARSARAIGWFRQAPGKEREFVARIYWSSGNTYYADSVKGRFAISRDIAKNTVDLTMNNLEPEDTAVYYCAAPQRRSARLSAWGQGTQVTVSS", "notes": "source: ER2738 E. coli, IPTG induction, purified (Dynabeads His-Tag Isolation & Pulldown)"}, "B2": {"name": "VHH clone D11 (VHH)", "VHH": "B1 VHH", "notes": "as for B1"}}, "biological_target": "T1, nucleolin (Homo sapiens, UniProt P19338)", "T1 construct": "The cells were not transfected; also called cell surface nucleolin; source: endogenous, on nucleolin-overexpressing MDA-MB-435S cells", "T1 sequence (P19338 whole entry)": "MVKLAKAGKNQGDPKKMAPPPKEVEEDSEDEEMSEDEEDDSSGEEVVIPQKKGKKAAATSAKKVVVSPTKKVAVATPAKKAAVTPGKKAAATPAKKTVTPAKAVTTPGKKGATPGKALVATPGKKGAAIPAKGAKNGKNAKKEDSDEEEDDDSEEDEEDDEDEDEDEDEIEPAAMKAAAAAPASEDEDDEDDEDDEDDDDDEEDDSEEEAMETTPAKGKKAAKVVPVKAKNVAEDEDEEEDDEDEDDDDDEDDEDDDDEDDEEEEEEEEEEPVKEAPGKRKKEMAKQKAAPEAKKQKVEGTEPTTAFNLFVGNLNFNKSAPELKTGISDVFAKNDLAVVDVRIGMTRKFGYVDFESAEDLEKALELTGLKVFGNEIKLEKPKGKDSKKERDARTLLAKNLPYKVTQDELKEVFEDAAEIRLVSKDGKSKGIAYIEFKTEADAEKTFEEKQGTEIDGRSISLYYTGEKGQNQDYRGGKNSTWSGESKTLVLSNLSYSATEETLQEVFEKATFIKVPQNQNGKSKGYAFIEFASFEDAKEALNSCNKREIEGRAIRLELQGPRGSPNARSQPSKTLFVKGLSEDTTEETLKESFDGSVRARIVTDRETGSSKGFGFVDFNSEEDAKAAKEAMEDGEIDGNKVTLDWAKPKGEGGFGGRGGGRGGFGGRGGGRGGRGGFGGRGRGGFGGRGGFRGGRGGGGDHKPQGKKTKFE", "experiment": "flow cytometry on cells; 1.5 x 10^5 MDA-MB-435S cells with 1 µg of each purified VHH, 45 min at 4 °C, PBS with 1% BSA; detected with anti-HA-Alexa Fluor 647; MFI normalised to cells with secondary antibody only; a representative experiment", "settings": "one partner purified", "data": [{"binder": "B1", "values": [{"measurement": "fold increase in binding (normalised MFI) relative to the reference VHH", "result": 1.4, "unit": "fold"}]}, {"binder": "B2", "values": [{"measurement": "fold increase in binding (normalised MFI) relative to the reference VHH", "result": 2, "unit": "fold"}]}]}
